Laboratory results published in PMC9352680, “A comprehensive thermodynamic model for RNA binding by the Saccharomyces cerevisiae Pumilio protein PUF4”.

T1: PUF4 RNA-binding domain (Saccharomyces cerevisiae, UniProt P25339 537-888)
T1 sequence: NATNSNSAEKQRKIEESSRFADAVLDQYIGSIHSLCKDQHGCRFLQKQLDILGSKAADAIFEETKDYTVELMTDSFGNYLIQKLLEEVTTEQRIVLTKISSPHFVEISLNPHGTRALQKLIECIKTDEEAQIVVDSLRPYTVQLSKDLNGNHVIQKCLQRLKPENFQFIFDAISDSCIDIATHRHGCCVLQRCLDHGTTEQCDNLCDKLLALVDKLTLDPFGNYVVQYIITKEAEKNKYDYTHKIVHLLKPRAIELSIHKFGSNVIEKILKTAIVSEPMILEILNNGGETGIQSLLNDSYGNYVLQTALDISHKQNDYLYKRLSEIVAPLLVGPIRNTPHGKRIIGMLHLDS


Target: T1, PUF4 RNA-binding domain
Test: Mg; RNA-MaP; 20 mM Na-HEPES pH 7.4, 30 mM KOAc, 0.75 mM MgCl2, 0.1% Tween-20, 5% glycerol, 0.1 mg/mL BSA, 2 mM DTT; 25 C; 0.0125-409.6 nM protein
Conditions: tags: N-His6-TEV cleaved; C-SNAP kept, Cy3B-labelled; label: tethered on chip by stalled RNA polymerase

Binder | Kd [nM]
UCUCUUGGUACAUAUCUCUU (ssRNA) [Ib_S1_P3E.1_K3.1_C3.1_H3.1_[T1G]_A3.1_[T5C]_F3.1_T3.1] | 1550
UCUCUUUGACUAUAUCUCUU (ssRNA) [Ib_S1_P3E.1_K3.1_C3.1_H3.1_[T3A]_[A4C]_A3.1_F3.1_T3.1] | > 2300
UCUCUUUGUAUCUUCCUCUCUU (ssRNA) [Ic_S1_P5E.1_K5.1_C5.1_H5.1_A5.1_[T6C]_[A7T]_F5.1_[T9C]_[A10C]_T5.1] | 74.7
UCUCUUUGUAUUUUCUUCUCUU (ssRNA) [Ic_S1_P5E.1_K5.1_C5.1_H5.1_A5.1_[A7T]_F5.1_[T9C]_[A10T]_T5.1] | 34.8
UCUCUUUGUAGCUGGUUCUCUU (ssRNA) [Ic_S1_P5E.1_K5.1_C5.1_H5.1_A5.1_[T5G]_[T6C]_[A7T]_F5.1_[T8G]_[T9G]_[A10T]_T5.1] | > 2300
UCUCUUUGUAACACCAUCUCUU (ssRNA) [Ic_S1_P5E.1_K5.1_C5.1_H5.1_A5.1_[T5A]_[T6C]_F5.1_[T8C]_[T9C]_T5.1] | 111
UCUCUUUGUACCAGCGUCUCUU (ssRNA) [Ic_S1_P5E.1_K5.1_C5.1_H5.1_A5.1_[T5C]_[T6C]_F5.1_[T8G]_[T9C]_[A10G]_T5.1] | 1180
UCUCUUUGUACUCUUUUCUCUU (ssRNA) [Ic_S1_P5E.1_K5.1_C5.1_H5.1_A5.1_[T5C]_[A7C]_F5.1_[A10T]_T5.1] | 23.1
UCUCUUUGUAAUCCGCUCUCUU (ssRNA) [Ic_S1_P5E.1_K5.1_C5.1_H5.1_A5.1_[T5A]_[A7C]_F5.1_[T8C]_[T9G]_[A10C]_T5.1] | 1660
UCUCUUUGUACGUUCAUCUCUU (ssRNA) [Ic_S1_P5E.1_K5.1_C5.1_H5.1_A5.1_[T5C]_[T6G]_[A7T]_F5.1_[T9C]_T5.1] | 51.8
UCUCUUUGUAUCGUUGUCUCUU (ssRNA) [Ic_S1_P5E.1_K5.1_C5.1_H5.1_A5.1_[T6C]_[A7G]_F5.1_[A10G]_T5.1] | 315
UCUCUUUGUACGUGCUUCUCUU (ssRNA) [Ic_S1_P5E.1_K5.1_C5.1_H5.1_A5.1_[T5C]_[T6G]_[A7T]_F5.1_[T8G]_[T9C]_[A10T]_T5.1] | 297
UCUCUUUGUAGCUGCUUCUCUU (ssRNA) [Ic_S1_P5E.1_K5.1_C5.1_H5.1_A5.1_[T5G]_[T6C]_[A7T]_F5.1_[T8G]_[T9C]_[A10T]_T5.1] | 2150
UCUCUUAGUACAUAUCUCUU (ssRNA) [Ib_S1_P3E.1_K3.1_C3.1_H3.1_[T1A]_A3.1_[T5C]_F3.1_T3.1] | 1760
UCUCUUUGUACCUAGCUCUCUU (ssRNA) [Ic_S1_P5E.1_K5.1_C5.1_H5.1_A5.1_[T5C]_[T6C]_[A7T]_F5.1_[T8A]_[T9G]_[A10C]_T5.1] | 114
UCUCUUUGCGUAUAUCUCUU (ssRNA) [Ib_S1_P3E.1_K3.1_C3.1_H3.1_[T3C]_[A4G]_A3.1_F3.1_T3.1] | > 2300
UCUCUUUGUAUCCCUAUCUCUU (ssRNA) [Ic_S1_P5E.1_K5.1_C5.1_H5.1_A5.1_[T6C]_[A7C]_F5.1_[T8C]_T5.1] | 13.3
UCUCUUUGUAUCGAUGUCUCUU (ssRNA) [Ic_S1_P5E.1_K5.1_C5.1_H5.1_A5.1_[T6C]_[A7G]_F5.1_[T8A]_[A10G]_T5.1] | 859
UCUCUUUGUAAUUCACUCUCUU (ssRNA) [Ic_S1_P5E.1_K5.1_C5.1_H5.1_A5.1_[T5A]_[A7T]_F5.1_[T8C]_[T9A]_[A10C]_T5.1] | 734
UCUCUUUGUAUAUACGUCUCUU (ssRNA) [Ic_S1_P5E.1_K5.1_C5.1_H5.1_A5.1_[T6A]_[A7T]_F5.1_[T8A]_[T9C]_[A10G]_T5.1] | 14.9

Binder | Kd [nM]
UCUCUUUGUAUAUCAGUCUCUU (ssRNA) [Ic_S1_P5E.1_K5.1_C5.1_H5.1_A5.1_[T6A]_[A7T]_F5.1_[T8C]_[T9A]_[A10G]_T5.1] | 4.58
UCUCUUUGUACAAAACUCUCUU (ssRNA) [Ic_S1_P5E.1_K5.1_C5.1_H5.1_A5.1_[T5C]_[T6A]_F5.1_[T8A]_[T9A]_[A10C]_T5.1] | 45.2
UCUCUUUGUAACCCGAUCUCUU (ssRNA) [Ic_S1_P5E.1_K5.1_C5.1_H5.1_A5.1_[T5A]_[T6C]_[A7C]_F5.1_[T8C]_[T9G]_T5.1] | 1950
UCUCUUUGUACCUUAGUCUCUU (ssRNA) [Ic_S1_P5E.1_K5.1_C5.1_H5.1_A5.1_[T5C]_[T6C]_[A7T]_F5.1_[T9A]_[A10G]_T5.1] | 2.41
UCUCUUUGUAUCAAUGUCUCUU (ssRNA) [Ic_S1_P5E.1_K5.1_C5.1_H5.1_A5.1_[T6C]_F5.1_[T8A]_[A10G]_T5.1] | 354
UCUCUUUGUAGUUUAUUCUCUU (ssRNA) [Ic_S1_P5E.1_K5.1_C5.1_H5.1_A5.1_[T5G]_[A7T]_F5.1_[T9A]_[A10T]_T5.1] | 15.2
UCUCUUUGUAUGUACCUCUCUU (ssRNA) [Ic_S1_P5E.1_K5.1_C5.1_H5.1_A5.1_[T6G]_[A7T]_F5.1_[T8A]_[T9C]_[A10C]_T5.1] | 93.8
UCUCUUUGUAGCUGCCUCUCUU (ssRNA) [Ic_S1_P5E.1_K5.1_C5.1_H5.1_A5.1_[T5G]_[T6C]_[A7T]_F5.1_[T8G]_[T9C]_[A10C]_T5.1] | > 2300
UCUCUUUGUAUGCCAUUCUCUU (ssRNA) [Ic_S1_P5E.1_K5.1_C5.1_H5.1_A5.1_[T6G]_[A7C]_F5.1_[T8C]_[T9A]_[A10T]_T5.1] | 100
UCUCUUUGUAAUGGUUUCUCUU (ssRNA) [Ic_S1_P5E.1_K5.1_C5.1_H5.1_A5.1_[T5A]_[A7G]_F5.1_[T8G]_[A10T]_T5.1] | 1060
UCUCUUUGUACUCAUUUCUCUU (ssRNA) [Ic_S1_P5E.1_K5.1_C5.1_H5.1_A5.1_[T5C]_[A7C]_F5.1_[T8A]_[A10T]_T5.1] | 119
UCUCUUUGUACCUAUUUCUCUU (ssRNA) [Ic_S1_P5E.1_K5.1_C5.1_H5.1_A5.1_[T5C]_[T6C]_[A7T]_F5.1_[T8A]_[A10T]_T5.1] | 48.7
UCUCUUUGUACCGUCCUCUCUU (ssRNA) [Ic_S1_P5E.1_K5.1_C5.1_H5.1_A5.1_[T5C]_[T6C]_[A7G]_F5.1_[T9C]_[A10C]_T5.1] | 1540
UCUCUUUGUAGCCUCAUCUCUU (ssRNA) [Ic_S1_P5E.1_K5.1_C5.1_H5.1_A5.1_[T5G]_[T6C]_[A7C]_F5.1_[T9C]_T5.1] | 721
UCUCUUUGUACACGCGUCUCUU (ssRNA) [Ic_S1_P5E.1_K5.1_C5.1_H5.1_A5.1_[T5C]_[T6A]_[A7C]_F5.1_[T8G]_[T9C]_[A10G]_T5.1] | 709
UCUCUUUGUAUCUUAUUCUCUU (ssRNA) [Ic_S1_P5E.1_K5.1_C5.1_H5.1_A5.1_[T6C]_[A7T]_F5.1_[T9A]_[A10T]_T5.1] | 3.28
UCUCUUUGUAAAUAUCUCUCUU (ssRNA) [Ic_S1_P5E.1_K5.1_C5.1_H5.1_A5.1_[T5A]_[T6A]_[A7T]_F5.1_[T8A]_[A10C]_T5.1] | 27.1
UCUCUUUGUACUCUACUCUCUU (ssRNA) [Ic_S1_P5E.1_K5.1_C5.1_H5.1_A5.1_[T5C]_[A7C]_F5.1_[T9A]_[A10C]_T5.1] | 4.81
UCUCUUUGUAACAUUCUCUCUU (ssRNA) [Ic_S1_P5E.1_K5.1_C5.1_H5.1_A5.1_[T5A]_[T6C]_F5.1_[A10C]_T5.1] | 15
UCUCUUUGUAGUACCUUCUCUU (ssRNA) [Ic_S1_P5E.1_K5.1_C5.1_H5.1_A5.1_[T5G]_F5.1_[T8C]_[T9C]_[A10T]_T5.1] | > 2300

Binder | Kd [nM]
UCUCUUUGUAACCGGUUCUCUU (ssRNA) [Ic_S1_P5E.1_K5.1_C5.1_H5.1_A5.1_[T5A]_[T6C]_[A7C]_F5.1_[T8G]_[T9G]_[A10T]_T5.1] | > 2300
UCUCUUUGUAUGUUUCUCUCUU (ssRNA) [Ic_S1_P5E.1_K5.1_C5.1_H5.1_A5.1_[T6G]_[A7T]_F5.1_[A10C]_T5.1] | 47
UCUCUUUGUACUCACGUCUCUU (ssRNA) [Ic_S1_P5E.1_K5.1_C5.1_H5.1_A5.1_[T5C]_[A7C]_F5.1_[T8A]_[T9C]_[A10G]_T5.1] | 1100
UCUCUUUGUACUUGUUUCUCUU (ssRNA) [Ic_S1_P5E.1_K5.1_C5.1_H5.1_A5.1_[T5C]_[A7T]_F5.1_[T8G]_[A10T]_T5.1] | 87.4
UCUCUUUGUAUGACCCUCUCUU (ssRNA) [Ic_S1_P5E.1_K5.1_C5.1_H5.1_A5.1_[T6G]_F5.1_[T8C]_[T9C]_[A10C]_T5.1] | 2180
UCUCUUUGUAGCUUACUCUCUU (ssRNA) [Ic_S1_P5E.1_K5.1_C5.1_H5.1_A5.1_[T5G]_[T6C]_[A7T]_F5.1_[T9A]_[A10C]_T5.1] | 19.2
UCUCUUUGUAUCCCGCUCUCUU (ssRNA) [Ic_S1_P5E.1_K5.1_C5.1_H5.1_A5.1_[T6C]_[A7C]_F5.1_[T8C]_[T9G]_[A10C]_T5.1] | 1690
UCUCUUUGUAUCUCGAUCUCUU (ssRNA) [Ic_S1_P5E.1_K5.1_C5.1_H5.1_A5.1_[T6C]_[A7T]_F5.1_[T8C]_[T9G]_T5.1] | 463
UCUCUUUGUAAUAUGGUCUCUU (ssRNA) [Ic_S1_P5E.1_K5.1_C5.1_H5.1_A5.1_[T5A]_F5.1_[T9G]_[A10G]_T5.1] | 10.1
UCUCUUCGUACAUAUCUCUU (ssRNA) [Ib_S1_P3E.1_K3.1_C3.1_H3.1_[T1C]_A3.1_[T5C]_F3.1_T3.1] | 1050
UCUCUUUGUAGCCCAAUCUCUU (ssRNA) [Ic_S1_P5E.1_K5.1_C5.1_H5.1_A5.1_[T5G]_[T6C]_[A7C]_F5.1_[T8C]_[T9A]_T5.1] | > 2300
UCUCUUUGUAACCGUAUCUCUU (ssRNA) [Ic_S1_P5E.1_K5.1_C5.1_H5.1_A5.1_[T5A]_[T6C]_[A7C]_F5.1_[T8G]_T5.1] | 52.9
UCUCUUUGUAAUCAUCUCUCUU (ssRNA) [Ic_S1_P5E.1_K5.1_C5.1_H5.1_A5.1_[T5A]_[A7C]_F5.1_[T8A]_[A10C]_T5.1] | 482
UCUCUUUGUAAAUACUUCUCUU (ssRNA) [Ic_S1_P5E.1_K5.1_C5.1_H5.1_A5.1_[T5A]_[T6A]_[A7T]_F5.1_[T8A]_[T9C]_[A10T]_T5.1] | 37.4
UCUCUUUGUAUCCAGCUCUCUU (ssRNA) [Ic_S1_P5E.1_K5.1_C5.1_H5.1_A5.1_[T6C]_[A7C]_F5.1_[T8A]_[T9G]_[A10C]_T5.1] | 1300
UCUCUUUGUACCUGCUUCUCUU (ssRNA) [Ic_S1_P5E.1_K5.1_C5.1_H5.1_A5.1_[T5C]_[T6C]_[A7T]_F5.1_[T8G]_[T9C]_[A10T]_T5.1] | 378
UCUCUUUGUAGCACUUUCUCUU (ssRNA) [Ic_S1_P5E.1_K5.1_C5.1_H5.1_A5.1_[T5G]_[T6C]_F5.1_[T8C]_[A10T]_T5.1] | 1000
UCUCUUGGUAUGUAUCUCUU (ssRNA) [Ib_S1_P3E.1_K3.1_C3.1_H3.1_[T1G]_A3.1_[A6G]_F3.1_T3.1] | 723
UCUCUUUGUACAUAGUUCUCUU (ssRNA) [Ic_S1_P5E.1_K5.1_C5.1_H5.1_A5.1_[T5C]_[T6A]_[A7T]_F5.1_[T8A]_[T9G]_[A10T]_T5.1] | 4.18
